Laboratory results as given in the supplement of paper PMC10567573.

B1: KLHDC10 (parent)
chain: CPIIRIPNRFLRGHRPPPARSGHR
B2: PTPRD (parent)
chain: MVHVARLLLLLLTFFLRTDAETPP

Variants of: B1
Experiment: protein stability index of a GFP-peptide fusion (GPS, HEK-293T) (PSI 1-6); higher = more stable
Details: c terminus: a fixed tail appended
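Note: lentivirally expressed fusions sorted by FACS into six bins by GFP to DsRed ratio, PSI derived from sequencing read proportions per bin multiplied by bin number.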

Variant | protein stability index
CPIIRIPNRFLRGHRPPPARSGVR | 1.69
CPIIRIPNRFLRGHRPPPARSGTR | 2.66
CPIIRIPNRFLRGHRPPPARSGYR | 2.01
CPIIRIPNRFLRGHRPPPARSGWR | 1.59
CPIIRIPNRFLRGHRPPPARSGHD | 2.93
CPIIRIPNRFLRGHRPPPARSGHE | 1.59
CPIIRIPNRFLRGHRPPPARSGHY | 1.7
CPIIRIPNRFLRGHRPPPARSGHG | 2.1
CPIIRIPNRFLRGHRPPPARSGHP | 2.33
CPIIRIPNRFLRGHRPPPARSGHI | 2.99
CPIIRIPNRFLRGHRPPPARSGHH | 2.01
CPIIRIPNRFLRGHRPPPARSGHN | 1.84
CPIIRIPNRFLRGHRPPPARSGHF | 1.31
CPIIRIPNRFLRGHRPPPARSGHK | 1.29
CPIIRIPNRFLRGHRPPPARSGHM | 1.93
CPIIRIPNRFLRGHRPPPARSGHS | 2.03
CPIIRIPNRFLRGHRPPPARSGHW | 2.99
CPIIRIPNRFLRGHRPPPARSGHL | 2.61
CPIIRIPNRFLRGHRPPPARSGHA | 2.37
CPIIRIPNRFLRGHRPPPARSGHV | 2.54
CPIIRIPNRFLRGHRPPPARSGHC | 1.82

Variants of: B2
Experiment: as above
Details: c terminus: a fixed tail appended

Variant | protein stability index
MVHVARLLLLLLPFFLRTDAETPP | 2.14
MVHVARLLLLLLRFFLRTDAETPP | 2.04
MVHVARLLLLLLMFFLRTDAETPP | 3.59
MVHVARLLLLLLWFFLRTDAETPP | 3.29
MVHVARLLLLLLNFFLRTDAETPP | 2.05
MVHVARLLLLLLHFFLRTDAETPP | 1.77
MVHVARLLLLLLKFFLRTDAETPP | 2.03
MVHVARLLLLLLQFFLRTDAETPP | 1.32
MVHVARLLLLLLIFFLRTDAETPP | 4.2
MVHVARLLLLLLSFFLRTDAETPP | 2.31
MVHVARLLLLLLGFFLRTDAETPP | 2.01
MVHVAQLLLLLLTFFLRTDAETPP | 3.99
MVHVAHLLLLLLTFFLRTDAETPP | 3.34
MVHVAELLLLLLTFFLRTDAETPP | 3.41
MVHVASLLLLLLTFFLRTDAETPP | 1.88
MVHVAILLLLLLTFFLRTDAETPP | 1.13
MVHVADLLLLLLTFFLRTDAETPP | 3.08
MVHVAKLLLLLLTFFLRTDAETPP | 1.67
MVHVACLLLLLLTFFLRTDAETPP | 2.16
MVHVALLLLLLLTFFLRTDAETPP | 1.9
MVHVATLLLLLLTFFLRTDAETPP | 2.3
MVHVAVLLLLLLTFFLRTDAETPP | 2.29
MVHVAMLLLLLLTFFLRTDAETPP | 1.76
MVHVAFLLLLLLTFFLRTDAETPP | 1.74

Variant | protein stability index
MVHVARLLDLLLTFFLRTDAETPP | 3.06
MVHVARLLKLLLTFFLRTDAETPP | 3.08
MVHVARLLFLLLTFFLRTDAETPP | 2.89
MVHVARLLHLLLTFFLRTDAETPP | 1.53
MVHVARLLRLLLTFFLRTDAETPP | 1.88
MVHVARLLWLLLTFFLRTDAETPP | 2.29
MVHVARLLQLLLTFFLRTDAETPP | 1.8
MVHVARLLMLLLTFFLRTDAETPP | 1.87
MVHVARLLTLLLTFFLRTDAETPP | 3.23
MVHVARLLALLLTFFLRTDAETPP | 2.04
MVHVARLLYLLLTFFLRTDAETPP | 2.74
MVHVARLLILLLTFFLRTDAETPP | 2.95
MVHVARLLNLLLTFFLRTDAETPP | 1.58
MVHVARLLSLLLTFFLRTDAETPP | 2.29
MVHLARLLLLLLTFFLRTDAETPP | 3.81
MVHMARLLLLLLTFFLRTDAETPP | 1.46
MVHTARLLLLLLTFFLRTDAETPP | 2.52
MVHNARLLLLLLTFFLRTDAETPP | 2.68
MVHSARLLLLLLTFFLRTDAETPP | 2.46
MVHIARLLLLLLTFFLRTDAETPP | 1.41
MVHRARLLLLLLTFFLRTDAETPP | 2.34
MVHCARLLLLLLTFFLRTDAETPP | 3.07
MVHYARLLLLLLTFFLRTDAETPP | 1.52
MVTVARLLLLLLTFFLRTDAETPP | 3.21

Variant | protein stability index
MVCVARLLLLLLTFFLRTDAETPP | 4.98
MVLVARLLLLLLTFFLRTDAETPP | 2.27
MVDVARLLLLLLTFFLRTDAETPP | 2.1
MVSVARLLLLLLTFFLRTDAETPP | 4.08
MVPVARLLLLLLTFFLRTDAETPP | 1.49
MVMVARLLLLLLTFFLRTDAETPP | 2.86
MVKVARLLLLLLTFFLRTDAETPP | 1.78
MVHVARLLLLLNTFFLRTDAETPP | 2.12
MVHVARLLLLLITFFLRTDAETPP | 2.03
MVHVARLLLLLCTFFLRTDAETPP | 3.16
MVHVARLLLLLQTFFLRTDAETPP | 2.2
MVHVARLLLLLSTFFLRTDAETPP | 2.3
MVHVARLLLLLHTFFLRTDAETPP | 1.58
MVHVARLLLLLVTFFLRTDAETPP | 1.57
MVHVARLLLLLWTFFLRTDAETPP | 2.53
MVHVARLLLLLRTFFLRTDAETPP | 2.03
MVHVARLLLLLYTFFLRTDAETPP | 3.69
MVHVARLLLLLETFFLRTDAETPP | 2.51
MVHVARLLLLLDTFFLRTDAETPP | 1.57
MVHVARLLLLLKTFFLRTDAETPP | 2.63
MVHVARLLLLLPTFFLRTDAETPP | 2.19
MVHVARLLLLLFTFFLRTDAETPP | 3
MVHVARLLLLLGTFFLRTDAETPP | 2.46
MVHVARLLLRLLTFFLRTDAETPP | 2.14

Variant | protein stability index
MVHVARLLLTLLTFFLRTDAETPP | 1.24
MVHVARLLLKLLTFFLRTDAETPP | 2.83
MVHVARLLLFLLTFFLRTDAETPP | 2.43
MVHVARLLLALLTFFLRTDAETPP | 2.23
MVHVARLLLILLTFFLRTDAETPP | 4.4
MVHVARLLLPLLTFFLRTDAETPP | 3.02
MVHVARLLLELLTFFLRTDAETPP | 2.79
MVHVARLLLYLLTFFLRTDAETPP | 1.66
MVHVARLLLDLLTFFLRTDAETPP | 1.67
MVHVARLLLCLLTFFLRTDAETPP | 2.04
MVHVARLLLGLLTFFLRTDAETPP | 1.33
MVHVARLLLNLLTFFLRTDAETPP | 2.71
MVHVARLLLQLLTFFLRTDAETPP | 1.57
MVHVARLLLWLLTFFLRTDAETPP | 1.93
MVHVARLLLMLLTFFLRTDAETPP | 2.42
MVHVARGLLLLLTFFLRTDAETPP | 4.57
MVHVARSLLLLLTFFLRTDAETPP | 2.15
MVHVARCLLLLLTFFLRTDAETPP | 2.95
MVHVARILLLLLTFFLRTDAETPP | 3.46
MVHVARRLLLLLTFFLRTDAETPP | 2.75
MVHVARTLLLLLTFFLRTDAETPP | 3.27
MVHVARPLLLLLTFFLRTDAETPP | 1.74
MVHVARHLLLLLTFFLRTDAETPP | 2.1
MVHVARKLLLLLTFFLRTDAETPP | 3.28

Variant | protein stability index
MVHVARNLLLLLTFFLRTDAETPP | 3.02
MVHVARELLLLLTFFLRTDAETPP | 1.36
MVHVARYLLLLLTFFLRTDAETPP | 2.55
MVHVFRLLLLLLTFFLRTDAETPP | 3.28
MVHVLRLLLLLLTFFLRTDAETPP | 3.83
MVHVRRLLLLLLTFFLRTDAETPP | 1.78
MVHVYRLLLLLLTFFLRTDAETPP | 2.6
MVHVCRLLLLLLTFFLRTDAETPP | 2.97
MVHVTRLLLLLLTFFLRTDAETPP | 2.7
MVHVWRLLLLLLTFFLRTDAETPP | 2.51
MVHVQRLLLLLLTFFLRTDAETPP | 2.34
MVHVHRLLLLLLTFFLRTDAETPP | 4.03
MVHVIRLLLLLLTFFLRTDAETPP | 1.95
TVHVARLLLLLLTFFLRTDAETPP | 2.87
KVHVARLLLLLLTFFLRTDAETPP | 2.28
FVHVARLLLLLLTFFLRTDAETPP | 1.96
LVHVARLLLLLLTFFLRTDAETPP | 1.52
YVHVARLLLLLLTFFLRTDAETPP | 3.9
QVHVARLLLLLLTFFLRTDAETPP | 2.33
HVHVARLLLLLLTFFLRTDAETPP | 1.82
EVHVARLLLLLLTFFLRTDAETPP | 2.33
IVHVARLLLLLLTFFLRTDAETPP | 3.05
MVHVARLLLLLLTEFLRTDAETPP | 1.57
MVHVARLLLLLLTHFLRTDAETPP | 1.25

Variant | protein stability index
MVHVARLLLLLLTGFLRTDAETPP | 1.48
MVHVARLLLLLLTPFLRTDAETPP | 2.45
MVHVARLLLLLLTAFLRTDAETPP | 1.93
MVHVARLLLLLLTLFLRTDAETPP | 1.98
MVHVARLLLLLLTSFLRTDAETPP | 1.99
MVHVARLLLLLLTKFLRTDAETPP | 1.61
MVHVARLLLLLLTDFLRTDAETPP | 1.79
MVHVARLLLLLLTQFLRTDAETPP | 2.15
MVHVARLLLLLLTMFLRTDAETPP | 3.79
MVHVARLLLLLLTCFLRTDAETPP | 1.47
MVHVARLLLLLLTRFLRTDAETPP | 1.98
MVHVARLLLLLLTIFLRTDAETPP | 2.56
MVHVARLLLLLLTNFLRTDAETPP | 2.07
MVHVARLLLLMLTFFLRTDAETPP | 3.56
MVHVARLLLLFLTFFLRTDAETPP | 2.56
MVHVARLLLLELTFFLRTDAETPP | 1.62
MVHVARLLLLSLTFFLRTDAETPP | 3.85
MVHVARLLLLKLTFFLRTDAETPP | 1.69
MVHVARLLLLNLTFFLRTDAETPP | 3.99
MVHVARLLLLPLTFFLRTDAETPP | 3.92
MVHVARLLLLILTFFLRTDAETPP | 2.14
MVHVARLLLLWLTFFLRTDAETPP | 3.02
MVHVARLLLLVLTFFLRTDAETPP | 1.84
MVHVARLLLLHLTFFLRTDAETPP | 1.97

Variant | protein stability index
MMHVARLLLLLLTFFLRTDAETPP | 2.69
MSHVARLLLLLLTFFLRTDAETPP | 2.4
MFHVARLLLLLLTFFLRTDAETPP | 4.14
MTHVARLLLLLLTFFLRTDAETPP | 2.06
MNHVARLLLLLLTFFLRTDAETPP | 1.79
MDHVARLLLLLLTFFLRTDAETPP | 2.92
MGHVARLLLLLLTFFLRTDAETPP | 1.83
MAHVARLLLLLLTFFLRTDAETPP | 2.85
MCHVARLLLLLLTFFLRTDAETPP | 2.73
MWHVARLLLLLLTFFLRTDAETPP | 2.96
MHHVARLLLLLLTFFLRTDAETPP | 2.53
MQHVARLLLLLLTFFLRTDAETPP | 1.88
MRHVARLLLLLLTFFLRTDAETPP | 2.51
MPHVARLLLLLLTFFLRTDAETPP | 1.93
MVHVARLFLLLLTFFLRTDAETPP | 2.82
MVHVARLQLLLLTFFLRTDAETPP | 2.18
MVHVARLTLLLLTFFLRTDAETPP | 3.02
MVHVARLDLLLLTFFLRTDAETPP | 3.8
MVHVARLRLLLLTFFLRTDAETPP | 2.45
MVHVARLKLLLLTFFLRTDAETPP | 1.98
MVHVARLYLLLLTFFLRTDAETPP | 3.46
MVHVARLCLLLLTFFLRTDAETPP | 1.89
MVHVARLILLLLTFFLRTDAETPP | 2.58
